Source: patent publication CN107973850A

Columns and labels:
[1] = target: CHO细胞表达的CSFV石门株E2蛋白 (classical swine fever virus, Shimen strain)
[2] = target: CSFV感染细胞的E2蛋白 (CSFV石门株病毒的E2蛋白) (classical swine fever virus, Shimen strain); assay: cell-based or functional assay

B1: 重组猪瘟病毒E2蛋白猪源化单克隆抗体rHQ06 Sw (antibody, V domains shown)
VH: QVQLQQSGGGLVQPKGSLKLSCAASGFTFNNNAMDWVRQAPGKGLEWVARIRTKSNYYATSYADSVKDRFTISRDDSQSMLYLQMNNLKTEDTAIYFCVREGYYAWFAYWGQGTLVTVSA
VL: DIVLTQTPSSLAVSIGEKVTMSCKSSQSLLYSRNQKNYLAWYQQKPGQFPKLLIYWASTRESGVPDRFTGSGSGTDFTLTISSVKAEDLAVYYCQQYYSYPYTFGGGTKLEIKR
Kd [1]: 13.1 nM | kon [1]: 98400 M⁻¹ s⁻¹ | 中和效价 (病毒中和试验, IFA) [2]: 12
